Results: patent publication US20240325557A1 (INNATE PHARMA, published 2024)

How the values were obtained:
human PVR on CHO cells = molecular target: T1, human PVR on CHO cells (human, UniProt P15151 28-417); experiment: flow cytometry on CHO cells expressing human PVR
T1 construct: also called PVR (Nectin-5)
T1 sequence: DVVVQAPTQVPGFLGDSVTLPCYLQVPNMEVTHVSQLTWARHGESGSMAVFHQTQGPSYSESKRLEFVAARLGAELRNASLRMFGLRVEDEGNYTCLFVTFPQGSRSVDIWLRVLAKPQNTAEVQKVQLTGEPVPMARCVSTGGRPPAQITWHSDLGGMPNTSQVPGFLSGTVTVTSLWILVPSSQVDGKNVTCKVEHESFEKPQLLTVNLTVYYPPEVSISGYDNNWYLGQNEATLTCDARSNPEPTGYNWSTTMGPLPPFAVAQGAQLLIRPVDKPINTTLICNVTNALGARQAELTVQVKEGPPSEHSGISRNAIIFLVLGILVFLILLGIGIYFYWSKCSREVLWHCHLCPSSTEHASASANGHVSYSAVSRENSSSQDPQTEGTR
Protocol: Anti-Nectin-4 antibodies were tested by flow cytometry for binding to different CHO cell lines made to express respectively the human Nectin 1, Nectin 2, Nectin 3 and PVR proteins. The expression of each cell lines was controlled and validated with known respectively the anti-human Nectin1, anti-human Nectin2, anti-human Nectin3 and anti-human PVR antibodies. The mature amino acid sequence of the proteins expressed by the cells were as follows:
Nectin 1, Nectin 2, Nectin 3 and PVR proteins as in Example 12. […] Epitope mapping was carried out by assessing competition for binding to Nectin-4 by SPR as in Example 14.

[1] = molecular target: T2, huNectin4-C1C2-V5 (C1C2 construct, lacking the Ig-like V domain) (human, UniProt Q96NY8 148-510); experiment: flow cytometry on Nectin4-C1C2-V5 sorted cells
T2 construct: Expressed on CHO cells; also called Hu-Nectin4 IgC1C2-V5; Nectin4-C1C2-V5 sorted cells
T2 sequence: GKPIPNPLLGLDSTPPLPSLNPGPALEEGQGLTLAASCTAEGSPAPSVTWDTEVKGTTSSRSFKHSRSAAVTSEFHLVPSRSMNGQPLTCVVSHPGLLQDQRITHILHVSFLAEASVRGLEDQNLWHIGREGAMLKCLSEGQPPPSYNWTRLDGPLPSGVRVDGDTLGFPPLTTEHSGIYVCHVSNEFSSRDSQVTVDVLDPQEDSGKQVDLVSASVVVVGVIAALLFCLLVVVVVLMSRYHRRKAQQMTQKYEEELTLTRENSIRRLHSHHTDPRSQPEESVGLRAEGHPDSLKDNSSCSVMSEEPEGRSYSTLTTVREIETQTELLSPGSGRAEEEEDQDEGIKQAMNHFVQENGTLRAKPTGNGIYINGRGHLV

- binding result (human PVR on CHO cells): no binding
- binding result [1]: binds
B1: antibody 6A7 (antibody, human IgG1, V domains shown)
VH: QVQLKESGAELVKPGASVKLSCKASGYTFTSYWMHWVKQRPGHGLEWVGEIDPSDSYTNYNQKFKGKATLTIDKSSSTVYMQLSSLTSEDSAVYYCARSGNYDAMDYWGQGTSVTVSA
VL: DIVMTQAAFSSAVTLGTSASISCRSSKSLLHSNGITYLYWYLQKPGQSPHFLIYQMSNLASGVPDRFTSSGSGTDFTLRISRVEAEDVGVYYCAQNLELPWTFGGGTKLEIK
notes: also called CHG1-M-4N4-6A7
